From patent US20220162261A1 (published 2022)
Like-named read-outs stand apart in the source and are kept apart here. Values belong to the binder of their own block, whether it stands above or below them. Bridge positions count the residues as written; N and C are the ends. Square brackets hold non-standard residues; d marks the D form. Phe(4-tBu) = CC(C)(C)c1ccc(C[C@H](N)C(=O)O)cc1; 2Nal = N[C@@H](Cc1ccc2ccccc2c1)C(=O)O; NMeR = CN[C@@H](CCCNC(=N)N)C(=O)O; β3hE = N[C@@H](CCC(=O)O)CC(=O)O; Pen = CC(C)(S)[C@H](N)C(=O)O

Experiments:
soluble α4β7 integrin [1] = target: T1, soluble α4β7 integrin (UniProt P13612 34-970; P26010 20-723, limits assumed); assay: SPR, binder on streptavidin chip, soluble α4β7
T1 construct: analyte of the SPR experiment

[2] = target: mouse α4β7 integrin on TK1 cells (mouse) (UniProt Q00651); assay: TK1 cell adhesion to MAdCAM-1
mouse α4β7 integrin on TK1 cells (mouse), sequence (Q00651 41-1039, chain 1 of 2): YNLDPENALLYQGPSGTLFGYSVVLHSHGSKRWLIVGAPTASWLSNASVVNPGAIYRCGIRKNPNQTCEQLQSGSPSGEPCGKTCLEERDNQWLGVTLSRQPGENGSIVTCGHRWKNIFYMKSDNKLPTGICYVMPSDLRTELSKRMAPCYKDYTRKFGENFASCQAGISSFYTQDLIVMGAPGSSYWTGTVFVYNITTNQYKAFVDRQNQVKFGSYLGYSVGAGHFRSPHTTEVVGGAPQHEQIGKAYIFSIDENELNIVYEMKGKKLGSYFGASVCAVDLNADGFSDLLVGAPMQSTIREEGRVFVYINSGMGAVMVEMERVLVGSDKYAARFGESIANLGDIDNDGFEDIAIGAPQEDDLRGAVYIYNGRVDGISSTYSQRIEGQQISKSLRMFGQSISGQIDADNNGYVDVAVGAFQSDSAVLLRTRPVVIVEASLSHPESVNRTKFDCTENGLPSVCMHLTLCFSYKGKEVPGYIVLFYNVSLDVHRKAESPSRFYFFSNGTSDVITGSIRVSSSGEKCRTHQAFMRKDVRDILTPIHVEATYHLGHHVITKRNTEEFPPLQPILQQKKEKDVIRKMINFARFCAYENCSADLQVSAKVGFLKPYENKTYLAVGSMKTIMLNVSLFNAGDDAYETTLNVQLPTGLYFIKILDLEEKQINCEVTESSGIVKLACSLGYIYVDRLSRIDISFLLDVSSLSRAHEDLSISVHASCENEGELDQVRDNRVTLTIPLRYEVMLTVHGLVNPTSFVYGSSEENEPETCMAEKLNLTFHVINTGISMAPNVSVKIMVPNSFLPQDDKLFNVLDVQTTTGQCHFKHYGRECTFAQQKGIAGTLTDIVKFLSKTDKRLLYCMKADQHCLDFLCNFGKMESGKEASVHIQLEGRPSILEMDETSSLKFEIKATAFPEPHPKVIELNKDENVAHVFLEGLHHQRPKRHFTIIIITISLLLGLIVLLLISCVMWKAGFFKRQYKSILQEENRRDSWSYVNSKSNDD
mouse α4β7 integrin on TK1 cells (mouse), sequence (P26011 20-806, chain 2 of 2, further chain): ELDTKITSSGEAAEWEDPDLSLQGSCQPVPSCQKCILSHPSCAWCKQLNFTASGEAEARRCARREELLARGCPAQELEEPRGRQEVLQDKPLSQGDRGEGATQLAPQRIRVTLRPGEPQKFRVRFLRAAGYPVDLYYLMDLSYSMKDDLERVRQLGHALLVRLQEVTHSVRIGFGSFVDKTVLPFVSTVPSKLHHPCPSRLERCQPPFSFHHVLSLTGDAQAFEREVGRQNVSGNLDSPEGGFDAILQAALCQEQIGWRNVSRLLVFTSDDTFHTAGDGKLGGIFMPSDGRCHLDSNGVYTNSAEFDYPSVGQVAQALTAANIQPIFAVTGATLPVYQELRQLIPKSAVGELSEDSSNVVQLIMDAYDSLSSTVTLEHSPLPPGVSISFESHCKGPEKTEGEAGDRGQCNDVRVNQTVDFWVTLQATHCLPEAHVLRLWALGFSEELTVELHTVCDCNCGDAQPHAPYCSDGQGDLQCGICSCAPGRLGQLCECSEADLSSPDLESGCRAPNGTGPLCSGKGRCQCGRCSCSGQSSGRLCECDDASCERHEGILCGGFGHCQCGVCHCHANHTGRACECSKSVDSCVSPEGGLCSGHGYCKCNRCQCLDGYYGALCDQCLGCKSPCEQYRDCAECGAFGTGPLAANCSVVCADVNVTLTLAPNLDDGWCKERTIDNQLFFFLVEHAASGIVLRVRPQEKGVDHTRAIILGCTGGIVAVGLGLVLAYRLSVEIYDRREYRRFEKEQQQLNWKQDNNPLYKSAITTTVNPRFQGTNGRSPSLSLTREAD

[3] = target: α4β1 (R&D Systems #5668-A4) (UniProt P13612); assay: competition ELISA vs VCAM-1
[4] = target: human α4β1 integrin on cells (human) (UniProt P13612); assay: Jurkat cell adhesion to VCAM-1
[5] = target: human α4β7 integrin on cells (human) (UniProt P13612); assay: PBMC memory T cell adhesion
[6] = target: rh integrin α4β7 (R&D Systems #5397-A30) (human) (UniProt P13612); assay: competition ELISA vs MAdCAM-1
[7] = target: human α4β7 integrin on cells (human) (UniProt P13612); assay: RPMI8866 cell adhesion to MAdCAM-1
[8] = target: T2, α4β1 (R&D Systems #5668-A4) (UniProt P13612 34-970; P05556 21-728, limits assumed); assay: competition ELISA vs VCAM-1
T2 construct: bought; also called soluble α4β1

[9] = target: T3, human α4β1 integrin on cells (human, UniProt P13612 34-1032; P05556 21-798); assay: Jurkat cell adhesion to VCAM-1
T3 construct: whole, on cells; also called α4β1 cell; Jurkat cells

[10] = target: T4, rh integrin α4β7 (R&D Systems #5397-A30) (human, UniProt P13612 34-970; P26010 20-723); assay: competition ELISA vs MAdCAM-1
T4 construct: bought; coated on a nickel coated plate; also called immobilized α4β7; immobilized α4β7 integrin protein

[11] = target: T5, mouse α4β7 integrin on TK1 cells (mouse, UniProt Q00651 41-1039; P26011 20-806); assay: TK1 cell adhesion to MAdCAM-1
T5 construct: whole, on cells; also called α4β7 cell (Mu); Cell Adhesion α4β7 Mouse
T5 sequence (Q00651 41-1039, chain 1 of 2): as the sequence (Q00651 41-1039, chain 1 of 2) above
T5 sequence (P26011 20-806, chain 2 of 2): as the sequence (P26011 20-806, chain 2 of 2, further chain) above

[12] = target: T6, human α4β7 integrin on cells (human, UniProt P13612 34-1032; P26010 20-798); assay: RPMI8866 cell adhesion to MAdCAM-1
T6 construct: whole, on cells; also called α4β7 cell (Hu); RPMI8866 cells

[13] = target: T6, human α4β7 integrin on cells; assay: PBMC memory T cell adhesion; acetate salt
[14] = target: T6, human α4β7 integrin on cells; assay: RPMI8866 cell adhesion to MAdCAM-1; acetate salt
[15] = target: T5, mouse α4β7 integrin on TK1 cells; assay: TK1 cell adhesion to MAdCAM-1; acetate salt
[16] = target: T4, rh integrin α4β7 (R&D Systems #5397-A30); assay: competition ELISA vs MAdCAM-1; acetate salt
[17] = target: T2, α4β1 (R&D Systems #5668-A4); assay: competition ELISA vs VCAM-1; acetate salt
[18] = target: T6, human α4β7 integrin on cells; assay: PBMC memory T cell adhesion
[19] = target: human α4β7 integrin on cells (human) (UniProt P13612); assay: FACS, human whole blood, Basophils
[20] = target: human α4β7 integrin on cells (human) (UniProt P13612); assay: FACS, human whole blood, Eosinophils
[21] = target: human α4β7 integrin on cells (human) (UniProt P13612); assay: FACS, human whole blood, CD8 memory T cells
[22] = target: human α4β7 integrin on cells (human) (UniProt P13612); assay: FACS, human whole blood, CD19+ B cells
[23] = target: human α4β7 integrin on cells (human) (UniProt P13612); assay: FACS, human whole blood, Neutrophils
[24] = target: human α4β7 integrin on cells (human) (UniProt P13612); assay: FACS, human whole blood, Monocytes
[25] = target: human α4β7 integrin on cells (human) (UniProt P13612); assay: FACS, human whole blood, NK cells CD16+ 56+
[26] = target: human α4β7 integrin on cells (human) (UniProt P13612); assay: FACS, human whole blood, CD4 memory T cells
soluble α4β7 integrin [27] = target: soluble α4β7 integrin (UniProt P13612); assay: SPR, binder on streptavidin chip, soluble α4β7
[28] = target: human α4β7 integrin on cells (human) (UniProt P13612); assay: FACS, human whole blood, CD8 naïve T cells
[29] = target: human α4β7 integrin on cells (human) (UniProt P13612); assay: FACS, human whole blood, CD4 naïve T cells
[30] = target: T6, human α4β7 integrin on cells; assay: PBMC memory T cell adhesion; remark: listed apart in the source
[31] = target: T5, mouse α4β7 integrin on TK1 cells; assay: TK1 cell adhesion to MAdCAM-1; remark: listed apart in the source
[32] = target: T3, human α4β1 integrin on cells; assay: Jurkat cell adhesion to VCAM-1; remark: listed apart in the source
[33] = target: T4, rh integrin α4β7 (R&D Systems #5397-A30); assay: competition ELISA vs MAdCAM-1; remark: listed apart in the source
[34] = target: T6, human α4β7 integrin on cells; assay: RPMI8866 cell adhesion to MAdCAM-1; remark: listed apart in the source
[35] = target: T2, α4β1 (R&D Systems #5668-A4); assay: competition ELISA vs VCAM-1; remark: listed apart in the source

- Half-life for dissociation (soluble α4β7 integrin [1]): 212 min
- Kd (soluble α4β7 integrin [1]): 52.1 nM
- koff (soluble α4β7 integrin [1]): 5.46e-05 s⁻¹
B1: Peptide Z-biotin (peptide)
peptide: Ac-[Pen][NMeR]SDTL[Pen]WE[dK]-NH2
modifications: disulfide 1-7; not fully specified (residue 10); printed as (Ac-Pen-(N-Me-Arg)-S-D-T-L-Pen-W-E-k-NH2)2-DIG; also: homodimer: two subunits joined by DIG linker, biotin label, attachment not given here

- IC50 [2]: 60 nM
- IC50 [3]: 200 nM
- IC50 [4]: > 100 µM
- IC50 [5]: 517 nM
- IC50 [6]: 11 nM
- IC50 [7]: 40 nM
B2: SEQ ID NO: 210 (peptide)
peptide: Ac-[Pen][NMeR]SDTL[Pen][2Nal]E[dK]-NH2
modifications: disulfide 1-7
SMILES: CC(=O)N[C@@H]1C(=O)N(C)[C@@H](CCCNC(=N)N)C(=O)N[C@@H](CO)C(=O)N[C@@H](CC(=O)O)C(=O)N[C@@H]([C@@H](C)O)C(=O)N[C@@H](CC(C)C)C(=O)N[C@H](C(=O)N[C@@H](Cc2ccc3ccccc3c2)C(=O)N[C@@H](CCC(=O)O)C(=O)N[C@H](CCCCN)C(N)=O)C(C)(C)SSC1(C)C

- IC50 [8]: > 100 nM
- IC50 [9]: > 100 µM
- IC50 [10]: ≤ 10 nM
- IC50 [11]: ≤ 10 nM
- IC50 [12]: ≤ 10 nM
B3: SEQ ID NO: 67 (peptide)
peptide: Ac-[Pen][NMeR]SDTL[Pen]WE[dK]-NH2
modifications: disulfide 1-7; not fully specified (residue 10); printed as (Ac Pen N-Me-R S D T L Pen W E k NH2)2 DIG, disulfide Pen-Pen; also: homodimer via DIG linker
notes: also called Peptide Z

- IC50 [13]: ≤ 10 nM
- IC50 [14]: ≤ 10 nM
- IC50 [15]: ≤ 10 nM
- IC50 [9]: > 100 µM
- IC50 [16]: ≤ 10 nM
- IC50 [10]: ≤ 10 nM
- IC50 [11]: ≤ 10 nM
- IC50 [17]: > 500 nM
- IC50 [18]: ≤ 10 nM
- IC50 [12]: ≤ 10 nM
B4: SEQ ID NO: 132 (peptide)
peptide: Ac-[Pen][NMeR]SDTL[Pen][Phe(4-tBu)][β3hE][dK]-NH2
modifications: disulfide 1-7; not fully specified (residue 10); printed as (Ac Pen N-Me-R S D T L Pen F(4tBu) b-H-E k NH2)2 DIG, disulfide Pen-Pen; also: homodimer, two subunits joined by DIG linker
notes: the second listing is the acetate salt

- Percent positive staining [19]: 86%
- Percent positive staining [20]: 91%
- Percent positive staining [21]: 36%
- Percent positive staining [22]: 85%
- Percent positive staining [23]: 0.45%
- Percent positive staining [24]: 7%
- Percent positive staining [25]: 42%
- Percent positive staining [26]: 22%
- Half-life for dissociation (soluble α4β7 integrin [27]): 43 min
- Kd (soluble α4β7 integrin [27]): 59.5 nM
- koff (soluble α4β7 integrin [27]): 0.000266 s⁻¹
- kon (soluble α4β7 integrin [27]): 4470 M⁻¹ s⁻¹
- Percent positive staining [28]: 53%
- Percent positive staining [29]: 55%
B5: biotin-labeled vedolizumab antibody (antibody, INN chains, looked up, V domains shown)
VH: QVQLVQSGAEVKKPGASVKVSCKGSGYTFTSYWMHWVRQAPGQRLEWIGEIDPSESNTNYNQKFKGRVTLTVDISASTAYMELSSLRSEDTAVYYCARGGYDGWDYAIDYWGQGTLVTVSS
VL: DVVMTQSPLSLPVTPGEPASISCRSSQSLAKSYGNTYLSWYLQKPGQSPQLLIYGISNRFSGVPDRFSGSGSGTDFTLKISRVEAEDVGVYYCLQGTHQPYTFGQGTKVEIKR
modifications: biotin label

- IC50 [8]: > 100 nM
- IC50 [9]: > 100 µM
- IC50 [10]: ≤ 10 nM
- IC50 [11]: ≤ 10 nM
- IC50 [12]: ≤ 10 nM
B6: SEQ ID NO: 78 (peptide)
peptide: Ac-[Pen][NMeR]SDTL[Pen]WE[dK]-OH
modifications: disulfide 1-7; not fully specified (residue 10); printed as (Ac Pen N-Me-R S D T L Pen W E k OH)2 DIG, disulfide Pen-Pen; also: homodimer: two subunits linked by DIG via D-Lys10 side chain

- IC50 [30]: 260 nM
- IC50 [31]: 51 nM
- IC50 [32]: > 100 µM
- IC50 [33]: 2.3 nM
- IC50 [34]: 24 nM
- IC50 [35]: 368 nM
Binder: XRSDTLXWK ((Ac Pen N-Me-R S D T L Pen W k NH2)2 DIG; disulfide Pen-Pen, also called peptide 209) [SEQ ID NO: 209]

- IC50 [4]: > 100 µM
Binder: Ac-[Pen][NMeR]SDTL[Pen][2Nal][dE][dK]-NH2 (disulfide 1-7; also: dimer (…)2 DIG, attachment not given here) [SEQ ID NO: 33]

- IC50 [2]: 2.5 nM
- IC50 [3]: 70 nM
- IC50 [4]: > 100 µM
- IC50 [6]: 2 nM
- IC50 [7]: 2.5 nM
Binder: Ac-[Pen][NMeR]SDTL[Pen][2Nal]E[dK]-NH2 (disulfide 1-7; also: dimer (…)2 DIG, attachment not given here) [SEQ ID NO: 212]

- IC50 [8]: > 500 nM
- IC50 [9]: > 100 µM
- IC50 [10]: ≤ 10 nM
- IC50 [11]: ≤ 10 nM
- IC50 [18]: > 100 nM
- IC50 [12]: > 25 nM
B7: SEQ ID NO: 68 (peptide)
peptide: Ac-[Pen][NMeR]SDTL[Pen]W[dE][dK]-NH2
modifications: disulfide 1-7; not fully specified (residue 10); printed as (Ac Pen N-Me-R S D T L Pen W e k NH2)2 DIG, disulfide Pen-Pen; also: homodimer via DIG linker

- IC50 [30]: 14.5 nM
- IC50 [31]: 1 nM
- IC50 [32]: > 100 µM
- IC50 [33]: 2.8 nM
- IC50 [34]: 4.2 nM
- IC50 [35]: 247 nM
B8: SEQ ID NO: 216 (peptide)
peptide: Ac-[Pen][NMeR]SDTL[Pen]W[dE][dK]-OH
modifications: disulfide 1-7; not fully specified (residue 10); printed as (Ac Pen N-Me-R S D T L Pen W e k OH)2 DIG, disulfide Pen-Pen; also: dimer, two subunits joined by DIG linker
notes: also called peptide 216
